The series can be described thus: yeast display, Sf9 membrane polyspecificity reagent, FACS + sequencing; frameworks hold sequencing errors. The gist of the method:
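A synthetic nanobody library was expressed on Saccharomyces cerevisiae BJ5465 by galactose induction for 36–48 hours. The library was stained for 1 hour at 4 °C with 10% biotinylated, detergent-solubilized Sf9 membrane reagent and enriched with streptavidin microbeads before FACS. Low and high (top ~1%) gates were set on anti-HA fluorescence for expression and streptavidin fluorescence for reagent binding, and each polyreactivity label reflects the gate of origin.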
For “QVQLVESGGGLVQAGGSLRLSCAASGLIFWYYTMGWYRQAPGKERELVAAITIGGSTYYADSVKGRFTISRDNAKNTVYLQMNSLKPEDTAVYYCNTRRGRSQGGRYEYDYWGQGTQVTVSS”, the “polyreactivity (PSR sort gate)” value is recorded as “low polyreactivity”. Take “QVQLVESGGGLVQAGGSLRLSCAASGLIFYAYAMGWYRPAPGKERELVAAITSGSGTNYADSVKGRFTISRDNAKNTVYLQMNSLKPEDTAVYYCNAETYGLVPYYIYHYDFDYWGQVTQVTVSS”: the “polyreactivity (PSR sort gate)” value is on record as “high polyreactivity”. With “QVQLVESGGGLVQAGGSLRLSCAASGLIFYAYYMGWYRQAPGKERELVAAISYSGGSTYYADSVKGRFTISRDNAKNTVYLQMNSLKPEDTSVYYCAADDGISTYEYWGQGTQVTVSS” the entry was “high polyreactivity”; with “QVQLVESGGGLVQAGGSLRLSCAASGLIFYDNMGWYRQAPGKERELVAAISSSGGSTSYADSVKGRFTISRDNAKNTVYFLMNSLKPEDTAVYYCAADQYYYWYTHQSIGYDYWGQGTQVTVSS”, “low polyreactivity”. With “QVQLVESGGGLVQAGGSLRLSCAASGLIFYFNGMGLYRQAPGKERELVASISASGDRTYYADSVKGRFTISRDNAKNTVYLQMNSLKQEDTAVYYCATDANTYTKYDYWGQGTQVSVSS” the entry was “low polyreactivity”; with “QVQLVESGGGLVQAGGSLRLSCAASGLIFYGNAMGWYRQAPGKERELVADITGSSVRTYSADSVKGRFTISRDNAKNTVYVQMNSLNRKIPRSITALNVSCTSVVVGYDYWGQGTQVTVSS”, “low polyreactivity”. With “QVQLVESGGGLVQAGGSLRLSCAASGLIFYGNAMGWYRQSPGKDRELVAAISRRGGRTYYADSVKGRFTISRDNAENTVYLQMNSLKPEDTAVYYCSAQYSYPYYKVTLYYWGQGTQVTVSS” the entry was “high polyreactivity”; with “QVQLVESGGGLVQAGGSLRLSCAASGLIFYINAMGWYRQAPGKERELVASITRTGSTNYADSVKGRFTISRDNAKNTVYLQMNSLKAEDTAVYYCAAYGPVYPHEYDYWGQGTQVTVSS”, “low polyreactivity”; with “QVQLVESGGGLVQAGGSLRLSCAASGLIFYLYAMGWYRQAPGKERELVAAFTYSGGSTRYADSVKGRFTISRDNAKNTVYLQMNSLKPEDTAVYYCNADGTAPTEMDYWGQGTQVTVSS”, “low polyreactivity”. Take “QVQLVESGGGLVQAGGSLRLSCAASGLIFYNYAMGWYRQAPGKERELVAAISRSGGRTYYADSVKGRFTISRDNAKNTVYLQMNSLKPEDTAVYYCNAVHVSIEGYYWGQGTQVTVSS”: the “polyreactivity (PSR sort gate)” value is on record as “high polyreactivity”. With “QVQLVESGGGLVQAGGSLRLSCAASGLIFYPYAMGWSRQAPGKEREFVAAITWSGGSTRYADSVKGRFTISRDNAKNTVYLQMNSLNPEDTAVYYCAAAYKWTYYWGQGTQVTVSS” the entry was “high polyreactivity”; with “QVQLVESGGGLVQAGGSLRLSCAASGLIFYPYAMGWYRQAPGKERELVAGISSSGDSTYYADSVKGRFTISRDNAKNTVYLQMNSLKPEDTAVYYCNADGWYFEYWGQGTQVTVSS”, “low polyreactivity”. As to “QVQLVESGGGLVQAGGSLRLSCAASGLIFYRYAMGWYRQAPGTERELVAVITRSGCNTNYADSVKGRFTISRDNAKNTVYLQMNSLKPEDTEVYYCDTRGIWKKVPYYYWGQGTQVTVSS”, the “polyreactivity (PSR sort gate)” value was “low polyreactivity”.

Regarding “QVQLVESGGGLVQAGGSLRLSCAASGLIFYRYTMGWYRQAPGKEREFVAAITAGGSTYYADSVKGRFTISRDNAKNTVYVQMNSLKPEDTAVYYCATLVRLLQYTYIKYDYWGQGTQVTVSS”, the “polyreactivity (PSR sort gate)” value is on record as “high polyreactivity”. In the case of “QVQLVESGGGLVQAGGSLRLSCAASGLIFYRYTMGWYRQAPGKERELVAAISWRGTRTYYADSVKGRFTISRDNAKNTVYLQMNSLKPEDTAVYYCTAGYVRRYSPSSSWRYDYWGQGTQVTVSS” it was “high polyreactivity”; in that of “QVQLVESGGGLVQAGGSLRLSCAASGLIFYSYTMGWYRQAPGKERELVASITWTGGSTYYADSVKGRFTISRDNAKNTVYLQMNSLKPEDTAVYYCAVRVPSSIHIQLDYWGQGTQVTVSS”, “high polyreactivity”; in that of “QVQLVESGGGLVQAGGSLRLSCAASGLIFYTYAMGWYRQAPGNERELVADINRSDGSTYYADSVKGRFTISRDNAKNTVYLQMNSLKPEDTAVYYCAVVGPYYSRFGGRYYYWGQGTQVTVSS”, “low polyreactivity”. In the case of “QVQLVESGGGLVQAGGSLRLSCAASGLIFYVYAMGWYRQAPGKERELVADITYSGGRTYYADSVKGRFTISRDKAKNTVYLQMNSLKPEDTAVYYCAADSVKYGIDPGLPNSDDYWGQGTQVTVSS” it was “low polyreactivity”; in that of “QVQLVESGGGLVQAGGSLRLSCAASGLIFYYYAMGGYRQAPGTQRELVACITGGDSTNYADSVKGRFTISRDNAKNTVYLQMNSLKPEDTAVYYCAAEFYGSSFGYRTYDYYYWGQGTEVTVSS”, “low polyreactivity”; in that of “QVQLVESGGGLVQAGGSLRLSCAASGLIFYYYAMGWYRQAPGKEREFVAAISRRGGSTYYADSVKGRFTISRDNAKNTVYLHMNSLKPEDTAVYYCAAKSGSFVHGGYQTPVYGSDYWGQGTQVTVSS”, “high polyreactivity”. Consider “QVQLVESGGGLVQAGGSLRLSCAASGLIFYYYAMGWYRQAPGKERELVAAITSDDRTYYADSVKGRFTISRDNAKNTFYLQMNSLKPEDTAVYYCAARYHGYLPQYRKYGYGYWGQGTQVTVSS”, for which the “polyreactivity (PSR sort gate)” value is recorded as “high polyreactivity”.

For the sequence “QVQLVESGGGLVQAGGSLRLSCAASGLIFYYYAMGWYRQAPGKEREVVAAISSNGGSTYYADSVKGRFTISRDNAKNTVYLQMNSLKPEDTAVYYCAAGYAYYYWTPYYYWGQGTQVTVSS”, the “polyreactivity (PSR sort gate)” value was “high polyreactivity”. With “QVQLVESGGGLVQAGGSLRLSCAASGLIFYYYAMGWYRQAPWKEREFVAAISRSGGIKRYADSVKGRFTISRDNAKNTVYLQMNSLKPEDTAVYYCAARYYYRHAQSFPWSNRWSSYYYWGQGTQVTVSS” the entry was “high polyreactivity”; with “QVQLVESGGGLVQAGGSLRLSCAASGLIIPYYAMGWSRQAPGKERELVAGITSDGSTNYADSVMGRFTISRDNAKIIVYLQMYSLKPVDTAVYYCAKEQGLYSVSPYDYWGQGTQVSVSS”, “low polyreactivity”. As for “QVQLVESGGGLVQAGGSLRLSCAASGLIIRRYAMGWYRQAPGKERELVAAISGSGSSTYYADSVKGRFTISRDNAKNTVYLQMNSLKPEDTAVYDCAAVVLFRRGQVIRVESDYWGQGTQVTVSS”, the “polyreactivity (PSR sort gate)” value was “high polyreactivity”.

In the case of “QVQLVESGGGLVQAGGSLRLSCAASGLIIRWYAMGWYRQAPGKERELVAAITRAGSTNYADSVKWRFTISRDNAKNTVYLQMNSLKPEDTAVYYCAAVAVELASEYDYWGQGTQVTVSS”, the “polyreactivity (PSR sort gate)” value is listed as “low polyreactivity”.

As for “QVQLVESGGGLVQAGGSLRLSCAASGLIIWLYTMGWYRQAPGKERELVAAIDWSGGSTYYADSVKGRFTISRDNAKNTVYLQMNSLKPEDTAVYYCAADPEPSYRFDYWGQGTQVTVSS”, the “polyreactivity (PSR sort gate)” value is recorded as “low polyreactivity”.

For “QVQLVESGGGLVQAGGSLRLSCAASGLIIYSNAMGWYRQAPRKERELVAAINYSGGRTYYADSVKGRFTISRDNAKNTVYLQMNSLKPEDTAVYYCAARLYGAQRHGGYWGQGTQVTVSS”, the “polyreactivity (PSR sort gate)” value is given as “high polyreactivity”. With “QVQLVESGGGLVQAGGSLRLSCAASGLIIYYYAMGWYRQAPGKERELVAAITWTAGSTSYADSVKGRFTISRDNAKNTVYLQMNSLKPEDTAVYYCAADYRHDTFSNQYDYWGQGTQVTVSS” the entry was “low polyreactivity”; with “QVQLVESGGGLVQAGGSLRLSCAASGLILHKYAMGWYRQAPGKERELVASINSGANTNYADSVKGRFTISRDNAKNTVYLQMNSLKPEDTAVYYCNASPFTVRYYKYEYWGQGTQVTVSS”, “low polyreactivity”.

The values above are taken from the nanobody polyreactivity screen of Harvey et al. (2022).
